Measurements published in patent US6441131B1, “Peptides, method for assaying human pepsinogen II or human pepsin II, and assaying kit” (Ono Pharmaceutical Co., Ltd., priority 1997, dated 2002).
Non-standard residues stand in square brackets, D forms with d. No end group written: not given here. *: point of attachment. Phe(4-I) = N[C@@H](Cc1ccc(I)cc1)C(=O)O; 2Nal = N[C@@H](Cc1ccc2ccccc2c1)C(=O)O; pNA = O=[N+]([O-])c1ccc(N*)cc1

How the values were obtained:
human pepsin II = biological target: T1, human pepsin II (Homo sapiens, UniProt P20142); assay: Digesting of the peptide substrate by human pepsin II (assay by HPLC); type: biochemical; details: for ration of digesting rate (pepsin II/ pepsin I): calculated from the HPLC digesting rates, pepsin II over pepsin I; for pepsin II digesting rate: peptide 0.5 mM, tartaric acid or glycine buffer pH2.0, 37° C., released amino acid derivative (II-A) by HPLC
T1 sequence (P20142 60-388): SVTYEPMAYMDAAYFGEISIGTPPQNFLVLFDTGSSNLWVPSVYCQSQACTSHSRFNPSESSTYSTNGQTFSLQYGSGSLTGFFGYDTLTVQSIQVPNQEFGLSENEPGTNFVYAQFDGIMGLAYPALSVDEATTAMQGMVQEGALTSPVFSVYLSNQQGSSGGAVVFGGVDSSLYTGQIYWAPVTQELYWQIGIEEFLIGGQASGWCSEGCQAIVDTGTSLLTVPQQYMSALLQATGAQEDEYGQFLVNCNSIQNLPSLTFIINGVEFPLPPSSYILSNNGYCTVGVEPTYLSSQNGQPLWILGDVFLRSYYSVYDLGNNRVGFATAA
Protocol: (§1) Tartaric acid buffer or glycine buffer (pH2.0) containing each peptide (0.5 mM) prepared in Examples 1 and 2(3) etc. (Examples in Table 3 described hereinafter).
(§2) An aqueous solution of human pepsin I or human pepsin II (0.01 mg/ml)
(§3) Enzyme solution I (0.1 ml) was added to Reagent (1.0 ml). After incubation of the mixture at 37° C. for 10, 30, 60 minutes, the mixture solution (0.3 ml) was collected. To the collected solution, 2N-NaOH (0.025 ml) was added to terminate the reaction. After addition of 2N-HCl (0.025 ml) to the mixture, protein was removed by the ultrafiltration. The assaying the amino acid derivatives of the formula (II-A) [drawing 19]
(§4) which was released after digesting by human pepsin in the obtained solution was carried out by HPLC using C18 column. The ratio of digesting rate of pepsin II/pepsin I was calculated according to the result from assay by HPLC. Such assay is carried out to confirm that a substrate was digested by pepsin I or pepsin II correctly and that the amino acid derivatives of the formula (II-A) were released.

human pepsin I = human pepsin I (Homo sapiens, UniProt P0DJD7); assay: Digesting of the peptide substrate by human pepsin I (assay by HPLC); type: biochemical; details: peptide 0.5 mM, tartaric acid or glycine buffer pH2.0, 37° C., released amino acid derivative (II-A) by HPLC
Protocol: as §1, §2, §3, §4

Chain of human pepsin I (P0DJD7 63-388): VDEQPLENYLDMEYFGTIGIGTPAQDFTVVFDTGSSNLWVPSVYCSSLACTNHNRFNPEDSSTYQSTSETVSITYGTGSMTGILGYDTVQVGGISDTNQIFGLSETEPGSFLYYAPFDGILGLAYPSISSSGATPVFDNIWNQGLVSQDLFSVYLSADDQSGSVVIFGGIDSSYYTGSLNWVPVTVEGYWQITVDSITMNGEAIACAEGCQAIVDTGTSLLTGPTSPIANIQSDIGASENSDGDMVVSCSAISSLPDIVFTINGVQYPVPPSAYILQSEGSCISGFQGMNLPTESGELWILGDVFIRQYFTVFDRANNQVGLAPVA

| Substance | ration of digesting rate (pepsin II/ pepsin I) (human pepsin II) | pepsin II digesting rate (human pepsin II) [μM/min · 1 μg Enz] | pepsin I digesting rate (human pepsin I) [μM/min · 1 μg Enz] |
| --- | --- | --- | --- |
| 2(39): Q=Pro Met Ser Glu; 2-Naphthyl; R4=Me; (EE)m single bond; Z=p-NA (PMSE[2Nal]A-pNA; also: TFMSA salt) | 201.1 | 45.79 | 0.2277 |
| 2(18): Q=Ala Pro Gln Gln Ala; 4-I-Phenyl; R4=Me; (EE)m single bond; Z=p-NA (APQQA[Phe(4-I)]A-pNA; also: TFA salt) | 757.0 | 9.20 | 0.0122 |
| 2(25): Q=Pro Gln Gln Met; 2-Naphthyl; R4=Me; (EE)m single bond; Z=p-NA (PQQM[2Nal]A-pNA; also: TFA salt) | 889.7 | 5.56 | 0.0063 |
